According to article PMC10018365, “Cryo-EM structure of the fully assembled Elongator complex” (Nucleic Acids Research, 2023):

B1: Saccharomyces cerevisiae Elp1 (natural protein, UniProt Q06706 1-1349, looked up)
chain: MVEHDKSGSKRQELRSNMRNLITLNKGKFKPTASTAEGDEDDLSFTLLDSVFDTLSDSITCVLGSTDIGAIEVQQFMKDGSRNVLASFNIQTFDDKLLSFVHFADINQLVFVFEQGDIITATYDPVSLDPAETLIEIMGTIDNGIAAAQWSYDEETLAMVTKDRNVVVLSKLFEPISEYHLEVDDLKISKHVTVGWGKKETQFRGKGARAMEREALASLKASGLVGNQLRDPTMPYMVDTGDVTALDSHEITISWRGDCDYFAVSSVEEVPDEDDETKSIKRRAFRVFSREGQLDSASEPVTGMEHQLSWKPQGSLIASIQRKTDLGEEDSVDVIFFERNGLRHGEFDTRLPLDEKVESVCWNSNSEALAVVLANRIQLWTSKNYHWYLKQELYASDISYVKWHPEKDFTLMFSDAGFINIVDFAYKMAQGPTLEPFDNGTSLVVDGRTVNITPLALANVPPPMYYRDFETPGNVLDVACSFSNEIYAAINKDVLIFAAVPSIEEMKKGKHPSIVCEFPKSEFTSEVDSLRQVAFINDSIVGVLLDTDNLSRIALLDIQDITQPTLITIVEVYDKIVLLRSDFDYNHLVYETRDGTVCQLDAEGQLMEITKFPQLVRDFRVKRVHNTSAEDDDNWSAESSELVAFGITNNGKLFANQVLLASAVTSLEITDSFLLFTTAQHNLQFVHLNSTDFKPLPLVEEGVEDERVRAIERGSILVSVIPSKSSVVLQATRGNLETIYPRIMVLAEVRKNIMAKRYKEAFIVCRTHRINLDILHDYAPELFIENLEVFINQIGRVDYLNLFISCLSEDDVTKTKYKETLYSGISKSFGMEPAPLTEMQIYMKKKMFDPKTSKVNKICDAVLNVLLSNPEYKKKYLQTIITAYASQNPQNLSAALKLISELENSEEKDSCVTYLCFLQDVNVVYKSALSLYDVSLALLVAQKSQMDPREYLPFLQELQDNEPLRRKFLIDDYLGNYEKALEHLSEIDKDGNVSEEVIDYVESHDLYKHGLALYRYDSEKQNVIYNIYAKHLSSNQMYTDAAVAYEMLGKLKEAMGAYQSAKRWREAMSIAVQKFPEEVESVAEELISSLTFEHRYVDAADIQLEYLDNVKEAVALYCKAYRYDIASLVAIKAKKDELLEEVVDPGLGEGFGIIAELLADCKGQINSQLRRLRELRAKKEENPYAFYGQETEQADDVSVAPSETSTQESFFTRYTGKTGGTAKTGASRRTAKNKRREERKRARGKKGTIYEEEYLVQSVGRLIERLNQTKPDAVRVVEGLCRRNMREQAHQIQKNFVEVLDLLKANVKEIYSISEKDRERVNENGEVYYIPEIPVPEIHDFPKSHIVDF
notes: Elp1, S. cerevisiae, full-length ORF; also called ScElp1; source: S. cerevisiae DS1-2b, overexpressed, purified within ScElongator
B2: Homo sapiens Elp456 subcomplex with Elp4 Δ133–175 (complex)
chain 1: MAAVATCGSVAASTGSAVATASKSNVTSFQRRGPRASVTNDSGPRLVSIAGTRPSVRNGQLLVSTGLPALDQLLGGGLAVGTVLLIEEDKYNIYSPLLFKYFLAEGIVNGHTLLVASAKEDPANILQELPAPSSSRFGHYYDASKRMPQELIEASNWHGFFLPEKISSTLKVEPCSLTPGYTKLLQFIQNIIYEEGFDGSNPQKKQRNILRIGIQNLGSPLWGDDICCAENGGNSHSLTKFLYVLRGLLRTSLSACIITMPTHLIQNKAIIARVTTLSDVVVGLESFIGSERETNPLYKDYHGLIHIRQIPRLNNLICDESDVKDLAFKLKRKLFTIERLHLPPDLSDTVSRSSKMDLAESAKRLGPGCGMMAGGKKHLDF
chain 2: MLDSLLALGGLVLLRDSVEWEGRSLLKALVKKSALCGEQVHILGCEVSEEEFREGFDSDINNRLVYHDFFRDPLNWSKTEEAFPGGPLGALRAMCKRTDPVPVTIALDSLSWLLLRLPCTTLCQVLHAVSHQDSCPGDSSSVGKVSVLGLLHEELHGPGPVGALSSLAQTEVTLGGTMGQASAHILCRRPRQRPTDQTQWFSILPDFSLDLQEGPSVESQPYSDPHIPPVDPTTHLTFNLHLSKKEREARDSLILPFQFSSEKQQALLRPRPGQATSHIFYEPDAYDDLDQEDPDDDLDI
chain 3: MFVELNNLLNTTPDRAEQGKLTLLCDAKTDGSFLVHHFLSFYLKANCKVCFVALIQSFSHYSIVGQKLGVSLTMARERGQLVFLEGLKSAVDVVFQAQKEPHPLQFLREANAGNLKPLFEFVREALKPVDSGEARWTYPVLLVDDLSVLLSLGMGAVAVLDFIHYCRATVCWELKGNMVVLVHDSGDAEDEENDILLNGLSHQSHLILRAEGLATGFCRDVHGQLRILWRRPSQPAVHRDQSFTYQYKIQDKSVSFFAKGMSPAVL
notes: Elp5, human, ORF; Elp6, human, ORF; source: Hi-5 insect cells (baculovirus, biGBac), purified (IgG Sepharose with TEV elution, Superose 6); not shown: FLAG, C-terminal, kept; Protein A, C-terminal, cleaved; copies: 2 + 2 + 2

Columns and labels:
[1] = target: the molecule itself; experiment: cryo-EM structure; ScElongator purified from overexpressing yeast, native sample (4.35 Å) and BS3-stabilised sample (6.6 Å; two-lobed map 17.2 Å); sample buffer 20 mM HEPES pH 7.5, 100 mM NaCl, 3 mM DTT
[2] = target: T1, Homo sapiens Elp123 subcomplex, wild type (Homo sapiens, UniProt O95163 1-1332; Q6IA86 1-826; Q9H9T3 1-547); experiment: pull-down; 10 μg bait, 20 μg prey; Elp123 on StrepTactin Sepharose by Twin-Strep-tagged Elp3, or Elp456 on anti-DYKDDDDK resin by FLAG-tagged Elp6; 30-60 min at 4°C; washes in 20 mM HEPES pH 7.5, 100 mM NaCl, 1 mM DTT, 0.05% Tween 20; SDS-PAGE with Coomassie or silver stain; also with ATP and bulk tRNA; conditions: both partners purified
T1 construct: Elp1, human, ORF; Elp2, human, ORF; Elp3, human, ORF; also called human Elp123; source: Sf9-3 insect cells (baculovirus, biGBac), purified (StrepTrap, heparin, Superose 6); not shown: Twin-Strep-tag, C-terminal, kept; copies: 2 + 2 + 2
T1 sequence (O95163 whole entry, chain 1 of 3): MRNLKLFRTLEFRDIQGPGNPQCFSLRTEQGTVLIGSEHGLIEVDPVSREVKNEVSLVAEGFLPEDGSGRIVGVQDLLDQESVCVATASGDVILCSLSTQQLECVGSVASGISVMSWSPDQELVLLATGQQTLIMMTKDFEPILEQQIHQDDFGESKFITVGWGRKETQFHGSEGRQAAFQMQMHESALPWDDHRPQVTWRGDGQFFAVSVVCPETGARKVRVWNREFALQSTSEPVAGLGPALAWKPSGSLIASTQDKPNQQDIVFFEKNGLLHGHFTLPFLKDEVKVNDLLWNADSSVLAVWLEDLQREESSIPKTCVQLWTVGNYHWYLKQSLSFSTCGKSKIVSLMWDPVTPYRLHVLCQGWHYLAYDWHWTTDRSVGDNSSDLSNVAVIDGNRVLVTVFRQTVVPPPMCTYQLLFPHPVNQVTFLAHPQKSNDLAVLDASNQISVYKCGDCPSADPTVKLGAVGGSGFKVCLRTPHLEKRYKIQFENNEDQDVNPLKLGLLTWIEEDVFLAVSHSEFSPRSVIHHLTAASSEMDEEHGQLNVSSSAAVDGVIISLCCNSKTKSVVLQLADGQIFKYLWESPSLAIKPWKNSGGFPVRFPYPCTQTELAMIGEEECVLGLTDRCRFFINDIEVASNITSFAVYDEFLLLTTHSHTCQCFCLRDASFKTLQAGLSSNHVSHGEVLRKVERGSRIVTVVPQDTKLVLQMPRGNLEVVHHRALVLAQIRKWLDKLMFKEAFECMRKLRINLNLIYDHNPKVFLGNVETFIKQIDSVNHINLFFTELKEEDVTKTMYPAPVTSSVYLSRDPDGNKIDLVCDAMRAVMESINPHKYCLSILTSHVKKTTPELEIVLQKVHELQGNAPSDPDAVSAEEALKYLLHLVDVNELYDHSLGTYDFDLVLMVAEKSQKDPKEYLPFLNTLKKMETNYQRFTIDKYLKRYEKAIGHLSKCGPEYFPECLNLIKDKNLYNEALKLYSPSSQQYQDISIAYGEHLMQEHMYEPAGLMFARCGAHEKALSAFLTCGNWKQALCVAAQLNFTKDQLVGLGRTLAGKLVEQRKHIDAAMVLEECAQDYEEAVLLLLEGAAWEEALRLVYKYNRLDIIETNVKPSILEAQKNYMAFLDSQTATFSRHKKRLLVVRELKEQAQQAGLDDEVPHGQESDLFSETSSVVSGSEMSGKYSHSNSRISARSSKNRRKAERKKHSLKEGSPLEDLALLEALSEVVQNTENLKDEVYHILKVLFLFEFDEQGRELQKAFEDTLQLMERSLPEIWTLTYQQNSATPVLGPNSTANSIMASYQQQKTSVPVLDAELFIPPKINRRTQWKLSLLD
T1 sequence (Q6IA86 whole entry, chain 2 of 3): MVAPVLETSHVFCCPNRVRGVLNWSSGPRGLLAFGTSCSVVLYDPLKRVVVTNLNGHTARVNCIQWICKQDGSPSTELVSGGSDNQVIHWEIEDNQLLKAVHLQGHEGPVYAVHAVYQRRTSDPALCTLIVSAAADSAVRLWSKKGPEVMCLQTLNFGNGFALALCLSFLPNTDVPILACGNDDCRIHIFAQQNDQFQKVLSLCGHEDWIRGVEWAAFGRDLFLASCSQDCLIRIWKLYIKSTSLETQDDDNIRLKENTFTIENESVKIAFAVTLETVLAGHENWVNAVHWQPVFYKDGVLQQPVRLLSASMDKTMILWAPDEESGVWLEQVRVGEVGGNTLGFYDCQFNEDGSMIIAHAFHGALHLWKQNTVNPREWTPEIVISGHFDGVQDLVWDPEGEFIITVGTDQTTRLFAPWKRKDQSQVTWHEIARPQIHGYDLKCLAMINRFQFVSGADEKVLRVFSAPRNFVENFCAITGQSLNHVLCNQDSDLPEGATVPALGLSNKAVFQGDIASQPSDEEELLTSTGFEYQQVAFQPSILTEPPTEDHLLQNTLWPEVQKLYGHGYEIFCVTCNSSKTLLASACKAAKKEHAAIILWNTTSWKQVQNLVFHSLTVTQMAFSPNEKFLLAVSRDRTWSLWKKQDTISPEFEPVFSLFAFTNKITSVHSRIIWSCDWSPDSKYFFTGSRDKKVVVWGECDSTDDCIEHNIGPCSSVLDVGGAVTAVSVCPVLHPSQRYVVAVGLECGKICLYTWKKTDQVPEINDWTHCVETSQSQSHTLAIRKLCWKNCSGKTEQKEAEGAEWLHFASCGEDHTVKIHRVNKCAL
T1 sequence (Q9H9T3 whole entry, chain 3 of 3): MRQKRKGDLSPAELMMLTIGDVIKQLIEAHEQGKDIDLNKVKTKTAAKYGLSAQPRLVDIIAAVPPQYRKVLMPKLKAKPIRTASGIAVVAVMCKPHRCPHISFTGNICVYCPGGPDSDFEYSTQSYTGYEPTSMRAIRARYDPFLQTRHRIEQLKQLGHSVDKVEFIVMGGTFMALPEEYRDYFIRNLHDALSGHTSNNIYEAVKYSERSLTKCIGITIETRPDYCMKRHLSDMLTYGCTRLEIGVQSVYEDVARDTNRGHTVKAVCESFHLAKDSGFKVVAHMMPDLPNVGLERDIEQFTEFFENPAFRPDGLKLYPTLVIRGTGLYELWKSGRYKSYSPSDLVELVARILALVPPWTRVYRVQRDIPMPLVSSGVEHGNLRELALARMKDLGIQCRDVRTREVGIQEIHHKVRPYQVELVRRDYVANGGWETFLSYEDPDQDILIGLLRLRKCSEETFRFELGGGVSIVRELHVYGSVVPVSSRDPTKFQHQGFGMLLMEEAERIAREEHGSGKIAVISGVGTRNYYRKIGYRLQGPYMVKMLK

Row | Binder | binding result [1] | binding result [2]
1 | B1 | binds | 
2 | B2 |  | binds
